# Laboratory results published in patent publication US20110294728.
# Like-named read-outs stand apart in the source and are kept apart here.
# What was measured:
# HIV-1 integrase (HIV-1) = assay: FP
# [1] = target: monomeric p51 subunit of HIV-1 RT (UniProt P03366); assay: stopped-flow, FRET between Trp of RT and bis-ANS, RT incubated with PAW
# [2] = target: monomeric p51 subunit of HIV-1 RT (UniProt P03366); assay: stopped-flow, FRET between Trp of RT and bis-ANS, without PAW
Substance,IC50 (HIV-1 integrase (HIV-1)),"IC50 (HIV-1 integrase (HIV-1); 3'-processing active, value is IC50 of PAW peptide, 10 mM MgCl2, 37 C)",kdis (dissociation rate constant of the RT heterodimer in 10% acetonitrile) [1],kdis (dissociation rate constant of the RT heterodimer in 10% acetonitrile) [2]
21-mer U5 LTR end oligonucleotide,15.2 µM,12.7 µM,,
monomeric p66 subunit of HIV-1 RT,,,kdis=1.42±0.007 s^-1,a dissociation rate constant kdis of 5.30±0.01 s^-1
